Test results taken from publication PMC4989188, “Identification and characterization of chromosomal relBE toxin-antitoxin locus in Streptomyces cattleya DSM46488” (Scientific Reports, 2016).

Target: T1, RelE2sca-His6 toxin (SCATT_39270) of Streptomyces cattleya DSM 46488 (Streptomyces cattleya DSM 46488, UniProt F8K3H9 1-87)
T1 construct: also called toxin RelE2sca; not shown: His6, N-terminal, kept
T1 sequence (looked up): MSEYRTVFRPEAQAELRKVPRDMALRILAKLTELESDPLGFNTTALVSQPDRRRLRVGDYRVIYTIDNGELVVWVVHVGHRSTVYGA
Assay: SEC
Conditions: both partners purified

B1: RelB2sca antitoxin (SCATT_39280) of Streptomyces cattleya DSM 46488 (natural protein, UniProt G8WSR4 1-89, looked up)
chain: MTQPLPMESIRDVRAHLAEVVERADRDDVPTVITRRGKQVAAVVSIEVLRKYQEWEEREINRIIDERMANPTPGVPIEDIMRETLARSE
notes: Untagged in the co-purification; Copies 2 are those in the 2:2 complex with RelE2sca-His6; In the functional row the protein was expressed from pBAD-relB2sca-relEeco in E. coli MGJ5987; also called antitoxin RelB2sca; RelBsca; source: E. coli BL21(DE3), co-expressed with RelE2sca-His6 from pACYC-relB2sca-relE2scahis, co-purified on NTA-Ni resin
stoichiometry N: 1 RelB2sca per RelE2sca-His6 (printed as 2:2)
